Data from patent publication US20030114404, “Vascular endothelial growth factor (VEGF) nucleic acid ligand complexes” (Gilead Sciences, Inc., published 2003).

The binders below were run against T1, VEGF165 (Homo sapiens, UniProt P15692-4 P15692-4:27-191) (assay: filter; 37 C). Settings: tags: carrier-free, Sf 21 insect cell expressed, R & D Systems; chain copies: 2 (inferred).
Description: (§1) Nucleic Acid Ligands radiolabeled during transcription by incorporation of α-[³²P]-labeled NTPs, or after synthesis using γ-[³²P]-ATP and T4 polynucleotide kinase, were incubated in low concentration (between 20 and 70 pM) with varying concentrations of VEGF or other growth factors at 37° C. for 15 minutes. Incubations were in TBS, PBS, or HEPES-buffered saline (HBS), pH 7.4, with or without the addition of supplemental divalent cations. Samples were passed through prewashed 0.45 μ Type HA filters (Millipore) followed by a 5-10 ml wash with binding buffer. Filters were immersed in scintillant and counted to quantitate the amount of protein-bound RNA retained by each filter. The equilibrium dissociation constant (KD) of Nucleic Acid Ligand binding to a specific protein was calculated from the data points as described in Green et al. (1996) Biochem. 35: 14413-14424.
The shared primary and secondary structural motifs that define each sequence family hint at the minimal sequence elements required for high affinity binding to VEGF. Nested truncations of a representative ligand from each family (indicated by gray boxes in Table 2) were produced by chemical synthesis and their relative affinities for VEGF were determined (Table 3). Truncated versions of ligands VP30.22, VP30.2 and VT30.44 were prepared by chemical synthesis and their affinities for VEGF were determined as described in Example 3. Initial truncations (t22, t2, t44) were further refined by synthesis of oligonucleotides with additional bases lacking from the 5′ and/or 3′ ends. In order to initiate the chemical synthesis, the 3′-most nucleotide of several of the ligands was modified either by substitution of 2′-OH-cytidine for 2′-F-cytidine (underlined) or by addition of a 3′-3′-linked deoxythymidine “cap” (asterisks). The length of each oligonucleotide (minus the cap) and its high affinity KD for binding to VEGF are shown.

T1 sequence (P15692 other isoform, or with tags, fused parts or gaps): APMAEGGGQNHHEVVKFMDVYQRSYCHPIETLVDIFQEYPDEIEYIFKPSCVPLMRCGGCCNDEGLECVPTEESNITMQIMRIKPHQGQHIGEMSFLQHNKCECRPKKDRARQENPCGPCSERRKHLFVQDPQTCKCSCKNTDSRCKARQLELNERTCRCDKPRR

Binder	Kd [nM]
GAACCGAUGGAAUUUUUGGACGCUC (ssRNA, 2'-F pyrimidines, N26 = 3'-3' inverted dT [26 = 3'-3' inverted dT (N replaced by T); 2'-F pyrimidines at 4,5,8,13,14,15,16,17,21,23,24,25]) [t2c]	0.2
CGAACCGAUGGAAUUUUUGGACGCUCG (ssRNA, 2'-F pyrimidines) [t2b]	0.1
AACCGAUGGAAUUUUUGGACGCU (ssRNA, 2'-F pyrimidines, N24 = 3'-3' inverted dT [24 = 3'-3' inverted dT (N replaced by T); 2'-F pyrimidines at 3,4,7,12,13,14,15,16,20,22,23]) [t2d]	20
GCGGAAUCAGUGAAUGCUUAUACAUCCGC (ssRNA, 2'-F pyrimidines, N30 = 3'-3' inverted dT [30 = 3'-3' inverted dT (N replaced by T); 2'-F pyrimidines at 2,7,8,11,15,17,18,19,21,23,25,26,27,29]) [t44]	0.01
GCGAACCGAUGGAAUUUUUGGACGCUCGC (ssRNA, 2'-F pyrimidines except 2'-OH C29) [t2a]	0.04
GACGAUGCGGUAGGAAGAAUUGGAAGCG (ssRNA, 2'-F pyrimidines) [t22a]	3
GCGGUAGGAAGAAUUGGAAGCGC (ssRNA, 2'-F pyrimidines except 2'-OH C23) [t22c]	0.09
GACGAUGCGGUAGGAAGAAUUGGAAGCGC (ssRNA, 2'-F pyrimidines, N30 = 3'-3' inverted dT [30 = 3'-3' inverted dT; all C/U at 1-29 = 2'-F]) [t22]	0.07
CGGUAGGAAGAAUUGGAAGCGC (ssRNA, 2'-F pyrimidines except 2'-OH C22) [t22d]	0.1
ACGAUGCGGUAGGAAGAAUUGGAAGCGC (ssRNA, 2'-F pyrimidines except 2'-OH C28) [t22b]	0.08

Target: T1, VEGF165
Test: filter; 37 C
Settings: tags: carrier-free, Sf 21 insect cell expressed, R & D Systems; chain copies: 2 (inferred)
Remark: another data set of the same source
Description: as §1

Binder	Kd [nM]
VP30.19 (ssRNA, 2'-F pyrimidines) RNA: GGGAGGACGAUGCGGCACUUUAGAAGAAUUGAAUUUCCCGCUGGUCAGACGACUCGCCCGA	0.009
VT30.28 (ssRNA, 2'-F pyrimidines) RNA: GGGAGGACGAUGCGGAGAAUCAGUGAAUGCUUAUAAACCUCGUGUCAGACGACUCGCCCGA	0.06
VT30.41 (ssRNA, 2'-F pyrimidines) RNA: GGGAGGACGAUGCGGCAGGGUGAAUGCCAAUGUACUUUUCGCGUCAGACGACUCGCCCGA	0.04
VP40.3 (ssRNA, 2'-F pyrimidines) RNA: GGGAGGACGAUGCGGCAAAAGUUUGAGUUGAUCUGAUACGUUUCAGUAUUGGCGUCAGACGACUCGCCCGA	2
VP40.5 (ssRNA, 2'-F pyrimidines) RNA: GGGAGGACGAUGCGGUUGAUCGAGGUUCUAAAGCCUAUUUCCUGACUUUCUCCCCCAGACGACUCGCCCGA	0.019
VP30.1 (ssRNA, 2'-F pyrimidines) RNA: GGGAGGACGAUGCGGUCUUUGAGUUUUUGCCAACGGUUUUCGCUCAGACGACUCGCCCGA	32
VP30.6 (ssRNA, 2'-F pyrimidines) RNA: GGGAGGACGAUGCGGAACGGAAUUCUUGGAUACACACCUCGUCCUCAGACGACUCGCCCGA	0.02
VP40.11 (ssRNA, 2'-F pyrimidines) RNA: GGGAGGACGAUGCGGAAGGAAGAUGUUGAUCGUUUGACGUGAUGUGGAUCCGCGUCAGACGACUCGCCCGA	0.98
VP30.63 (ssRNA, 2'-F pyrimidines) RNA: GGGAGGACGAUGCGGAACCAAUAGAGAUCUUCGGCUGCCCCGCGUCAGACGACUCGCCCGA	0.016
VT30.54 (ssRNA, 2'-F pyrimidines) RNA: GGGAGGACGAUGCGGGACUAGGUGAAUGCCAAUAUUCUUCUCCGUCAGACGACUCGCCCGA	0.01
VP40.26 (ssRNA, 2'-F pyrimidines) RNA: GGGAGGACGAUGCGGACUCAACUGGACGCUAUGUUGACGGUUAUCGCUUUUGGGUCAGACGACUCGCCCGA	0.013
VP30.25 (ssRNA, 2'-F pyrimidines) RNA: GGGAGGACGAUGCGGCGGGAUUUUGGAAGAAUUGGAUAUUGGCCUCAGACGACUCGCCCGA	0.02
VP30.40 (ssRNA, 2'-F pyrimidines) RNA: GGGAGGACGAUGCGGAAACGGAAGAAUUGGAUACGCAAGCACGUUCAGACGACUCGCCCGA	0.006
VP30.27 (ssRNA, 2'-F pyrimidines) RNA: GGGAGGACGAUGCGGAAGAAUUGGAUAUAUCGUUCACCCCCACCUCAGACGACUCGCCCGA	0.4
VP40.25 (ssRNA, 2'-F pyrimidines) RNA: GGGAGGACGAUGCGGAAUGGAAUUUGAGUCGAUCUAGAAUGCGUCGUAUGGGCUCAGACGACUCGCCCGA	0.74
VP30.11 (ssRNA, 2'-F pyrimidines) RNA: GGGAGGACGAUGCGGUCAGGAACGGAAUUUUUGGAGACACGCCCUCAGACGACUCGCCCGA	0.025
VT30.11 (ssRNA, 2'-F pyrimidines) RNA: GGGAGGACGAUGCGGAAUCAGUGAAUGCUUAUAGCUCCCGCGUCCUCAGACGACUCGCCCGA	0.004
VP40.36 (ssRNA, 2'-F pyrimidines) RNA: GGGAGGACGAUGCGGCAGGUUCAGAAUUGGCAGUCGCAUUGAUCUUUUUCACCGCCAGACGACUCGCCCGA	1.3

Binder	Kd [nM]
VP30.58 (ssRNA, 2'-F pyrimidines) RNA: GGGAGGACGAUGCGGCAACUAUUCGUUGAUGUUUCCGUGAGCCGUCAGACGACUCGCCCGA	0.006
VP30.14 (ssRNA, 2'-F pyrimidines) RNA: GGGAGGACGAUGCGGACUGGGAGAAUCCGAAAAACCUUCACGCGUCAGACGACUCGCCCGA	0.025
VP40.2 (ssRNA, 2'-F pyrimidines) RNA: GGGAGGACGAUGCGGAUCUGUGAACUGGGUUUUUGCCGACGGUUACGCUUUUGCUCAGACGACUCGCCCGA	0.035
VP30.67 (ssRNA, 2'-F pyrimidines) RNA: GGGAGGACGAUGCGGUUAACGGAAUUCUUGGAUACAUAGCAUGGUCAGACGACUCGCCCGA	0.024
VP30.65 (ssRNA, 2'-F pyrimidines) RNA: GGGAGGACGAUGCGGAAAACGCUUUUCUUGGCCCCCUCGUUGCGCCAGACGACUCGCCCGA	0.033
VP30.18 (ssRNA, 2'-F pyrimidines) RNA: GGGAGGACGAUGCGGAUCCAUCAUUUAACCGUUUGCUCUCCCCCUCAGACGACUCGCCCGA	0.027
VT30.21 (ssRNA, 2'-F pyrimidines) RNA: GGGAGGACGAUGCGGAUCAGUGAAUGCUUAUAGACCGUAUUGCGUCAGACGACUCGCCCGA	0.006
VP40.24 (ssRNA, 2'-F pyrimidines) RNA: GGGAGGACGAUGCGGGAUGCUGAGUGAGGAAGUCUGAUUGUUGCAGUAUUGGCGUCAGACGACUCGCCCGA	5
VP30.20 (ssRNA, 2'-F pyrimidines) RNA: GGGAGGACGAUGCGGUUGAUCGGACGUUAGUCAUUUCCCGAUCGUCAGACGACUCGCCCGA	0.057
VP40.18 (ssRNA, 2'-F pyrimidines) RNA: GGGAGGACGAUGCGGUAGUAAGUUAUUGAAAGCGCAUCUCUAUCAACUCUCGGCCCAGACGACUCGCCCGA	0.012
VT30.29 (ssRNA, 2'-F pyrimidines) RNA: GGGAGGACGAUGCGGAAUCAGUGAAUGCUUAUAGCUCCGCGUGGUCAGACGACUCGCCCGA	0.01
VT30.44 (ssRNA, 2'-F pyrimidines) RNA: GGGAGGACGAUGCGGAAUCAGUGAAUGCUUAUACAUCCGCUCGGUCAGACGACUCGCCCGA	0.01
VT30.15 (ssRNA, 2'-F pyrimidines) RNA: GGGAGGACGAUGCGGAACCAGUGAAUGCUUAUAAGACUGCUCGUCAGACGACUCGCCCGA	0.003
VP30.35 (ssRNA, 2'-F pyrimidines) RNA: GGGAGGACGAUGCGGUGAAUGAGCUGACGACCCUGAAUUGCUCGUCAGACGACUCGCCCGA	0.006
VP30.23 (ssRNA, 2'-F pyrimidines) RNA: GGGAGGACGAUGCGGGAGCUUGAAGUUUCAGUAUUGGCACAACCUCAGACGACUCGCCCGA	0.063
VP30.48 (ssRNA, 2'-F pyrimidines) RNA: GGGAGGACGAUGCGGGAGCUUGAAGUUUCGGUAUUGGCACAACCUCAGACGACUCGCCCGA	> 10
VP30.61 (ssRNA, 2'-F pyrimidines) RNA: GGGAGGACGAUGCGGGAGCUUGAAGUUUCAGUACUGGCACAACCUCAGACGACUCGCCCGA	0.043
